Experimental data reported in patent publication US9724381B2 (THE ADMINISTRATORS OF THE TULANE EDUCATIONAL FUND, priority 2009, dated 2017).
Where no end group is shown, it is not given here. [ ]: non-standard residue; d: D form. The star is where a group is joined. d2Nal = N[C@H](Cc1ccc2ccccc2c1)C(=O)O; dCha = N[C@H](CC1CCCCC1)C(=O)O; Picolinoyl = O=C(c1ccccn1)*; Nle = CCCC[C@H](N)C(=O)O; Orn = NCCC[C@H](N)C(=O)O; Dab = NCC[C@H](N)C(=O)O; dPal = not defined here; Aib = CC(C)(N)C(=O)O; Inp = O=C(O)C1CCNCC1; GABA = NCCCC(=O)O; βAla = NCCC(=O)O; iPr = CC(C)*

Columns and labels:
[1] = molecular target: T1, Ghrelin/GHRP/GHS Receptor (Rattus norvegicus, UniProt O08725); assay: In vitro GH release from cell culture of pituitary cells; assay type: cell-based; set-up: After dispersion, the cells were collected by centrifugation, wash with DMEM and placed into culture well; endogenous in cells; host or cells: dispersed primary rat anterior pituitary cells; settings: Table 8
Procedure: In vitro GH Release-Female rats of the CD-1 strain were housed in a constant temperature room at 24° C. with 14 h light and 10 h darkness. The rats were fed Purina Rat chow and water at libitum. All studies were started between 0800-1000 hours. Pituitaries of mature female Sprague Dawley rats were rapidly removed after decapitation, neurointermediate lobe discarded and then placed in a pH 7.4 buffer. The pituitaries were cut into ˜3-mm pieces and then transferred to a flask containing HEPS buffer with trypsin and incubated at 37° C. Cells were triturated several times during this period. After dispersion, the cells were collected by centrifugation, wash with DMEM and placed into culture well. Cell cultures were maintained for 4 days at 37° with 8% CO2 added to the incubator atmosphere. After 4 days in culture, cells were washed with lactated Ringer's solution adjusted to pH 7.2-7.4 and then vehicle, peptide alone or peptide plus stimulator was added to media. Incubation time was 60-120 minutes after which media was removed from each well for GH determination. The GH RIA reagents were distributed by the NIH. Control data was collected from cell cultures treated with only the corresponding vehicle in the absence of peptide or stimulator. Control stimulated data was collected from cell cultures treated with stimulator alone in the absence of any peptide.

[2] = molecular target: T1, Ghrelin/GHRP/GHS Receptor; assay: In vivo GH release in rat (serum GH by RIA after i.v. peptide); settings: for Unstimulated Basal GH Release from rat: Table 3; for Unstimulated Basal GH release from rats: Table 5; for Stimulated (S) GH release from rats / Unstimulated GH release from rats: Table 4, non-pentobarbital rats, peptide 30 μg i.v.; for Stimulated (S) GH release from rats: P + S, stimulator 10 μg; for Unstimulated GH release from rats: −S
Procedure: For the in vivo assay of GH Release in rat, immature female Sprague Dawley rats were obtained from Charles River from Wilmington, Mass. After arrival they were housed at 25° C. with a 14:10 h light:dark cycle. Water and Purina rat chow were available at libitum. Pups were weaned at 21 days of age.
Immature twenty six day old female Sprague Dawley rats, 3-6 rats per treatment dose, were pretreated with pentobarbital 20 minutes before iv injection of vehicle/peptide or peptide plus stimulator. Injection was made as a 0.1 ml solution. For the non-pentobarbital treated rat assay, peptides were administered iv into the tail vein of conscious rats. All animals were sacrificed by guillotine after iv peptide or vehicle. Trunk blood was collected at +10-15 minutes […], allowed to clot, centrifuged and serum stored until assayed for GH levels by RIA. The GH RIA reagents were distributed by the NIH. Control data was collected from rats treated with only the corresponding vehicle in the absence of peptide or stimulator. Control stimulated data was collected from rats treated with stimulator alone in the absence of any peptide.

[3] = peptide antagonist dosage 3 (head prints μg/i.v.)
[4] = peptide antagonist dosage 10 (head prints μg/i.v.)
[5] = peptide antagonist dosage 30 (head prints μg/i.v.)
[6] = peptide antagonist dosage 100 (head prints μg/i.v.)
[7] = peptide antagonist dosage 1 (head prints μg/i.v.)
[8] = peptide antagonist alone 10 μg i.v.
[9] = peptide antagonist alone 1 μg i.v.
[10] = peptide antagonist alone 30 μg i.v.

T1 sequence (O08725 whole entry): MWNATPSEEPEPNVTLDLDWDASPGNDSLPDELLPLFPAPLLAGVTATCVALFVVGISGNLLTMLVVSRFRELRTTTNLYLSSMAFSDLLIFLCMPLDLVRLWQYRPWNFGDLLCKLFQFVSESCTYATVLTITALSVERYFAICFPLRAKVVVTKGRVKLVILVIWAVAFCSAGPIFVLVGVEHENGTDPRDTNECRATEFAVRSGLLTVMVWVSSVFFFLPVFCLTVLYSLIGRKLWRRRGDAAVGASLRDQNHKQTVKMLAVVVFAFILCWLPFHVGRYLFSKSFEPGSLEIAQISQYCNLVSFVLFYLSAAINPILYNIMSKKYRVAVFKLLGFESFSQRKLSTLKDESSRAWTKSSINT

Row | Substance | Unstimulated Basal GH release from cell cultures of pituitary cells [1, 3] | Unstimulated Basal GH release from cell cultures of pituitary cells [1, 4] | Unstimulated Basal GH release from cell cultures of pituitary cells [1, 5] | Unstimulated Basal GH release from rats [2, 8] | also measured
1 | Ac-DLys-Tyr-DTrp-DTrp-Phe-NH2 (Ac-[dK]Y[dW][dW]F-NH2; SMILES CC(=O)N[C@H](CCCCN)C(=O)N[C@@H](Cc1ccc(O)cc1)C(=O)N[C@H](Cc1c[nH]c2ccccc12)C(=O)N[C@H](Cc1c[nH]c2ccccc12)C(=O)N[C@@H](Cc1ccccc1)C(N)=O) | 105 ± 8 ng/mL | 950 ± 91 ng/mL | 782 ± 56 ng/mL |  | Unstimulated Basal GH release from cell cultures of pituitary cells [1, 6]: 756 ± 1 ng/mL
2 | Ac-DβNal-DTrp-NH2 | 1264 ± 2 ng/mL | 980 ± 72 ng/mL | 699 ± 7 ng/mL |  | 
3 | Ac-DβNal-PicLys-ILys-DPhe-NH2 (Ac-[d2Nal]K(Picolinoyl)K(iPr)[dF]-NH2; SMILES CC(=O)N[C@H](Cc1ccc2ccccc2c1)C(=O)N[C@@H](CCCCNC(=O)c1ccccn1)C(=O)N[C@@H](CCCCNC(C)C)C(=O)N[C@H](Cc1ccccc1)C(N)=O) [Ac-DβNal-PlcLys-ILys-DPhe-NH2] | 1013 ± 207 ng/mL | 976 ± 13 ng/mL | 928 ± 16 ng/mL |  | 
4 | Arg-DTrp-Leu-Tyr-Trp-Pro(cyclic Arg-Pro) | 1480 ± 19 ng/mL | 802 ± 26 ng/mL | 601 ± 16 ng/mL |  | Unstimulated Basal GH release from cell cultures of pituitary cells [1, 6]: 509 ± 49 ng/mL
5 | DAla-DcyclohexylAla-Ala-Ala-Phe-DPhe-Nle-NH2 ([dA][dCha]AAF[dF][Nle]-NH2; N-terminus assumed; SMILES CCCC[C@H](NC(=O)[C@@H](Cc1ccccc1)NC(=O)[C@H](Cc1ccccc1)NC(=O)[C@H](C)NC(=O)[C@H](C)NC(=O)[C@@H](CC1CCCCC1)NC(=O)[C@@H](C)N)C(N)=O) | 177 ± 44 ng/mL | 271 ± 38 ng/mL | 376 ± 28 ng/mL |  | Unstimulated Basal GH release from cell cultures of pituitary cells [1, 7]: 286 ± 75 ng/mL
6 | DLys-Tyr-DTrp-DTrp-Phe-NH2 ([dK]Y[dW][dW]F-NH2; N-terminus assumed; SMILES NCCCC[C@@H](N)C(=O)N[C@@H](Cc1ccc(O)cc1)C(=O)N[C@H](Cc1c[nH]c2ccccc12)C(=O)N[C@H](Cc1c[nH]c2ccccc12)C(=O)N[C@@H](Cc1ccccc1)C(N)=O) | 1175 ± 77 ng/mL | 1129 ± 6 ng/mL | 744 ± 44 ng/mL |  | Unstimulated Basal GH release from cell cultures of pituitary cells [1, 7]: 1451 ± 19 ng/mL
7 | DPal-Phe-DTrp-Phe-Met-NH2 ([dPal]F[dW]FM-NH2; reading uncertain; also: printed as DPal-Phe-DTrp-Phe-Met-NH2) | 1081 ± 50 ng/mL | 997 ± 30 ng/mL | 425 ± 25 ng/mL |  | 
8 | DPal-Trp-DPhe-Phe-Met-NH2 ([dPal]W[dF]FM-NH2; reading uncertain; also: printed as DPal-Trp-DPhe-Phe-Met-NH2) | 1105 ± 18 ng/mL | 891 ± 4 ng/mL | 567 ± 24 ng/mL |  | 
9 | His-DTrp-Phe-Trp-DPhe-Lys-NH2 (H[dW]FW[dF]K-NH2; N-terminus assumed; SMILES NCCCC[C@H](NC(=O)[C@@H](Cc1ccccc1)NC(=O)[C@H](Cc1c[nH]c2ccccc12)NC(=O)[C@H](Cc1ccccc1)NC(=O)[C@@H](Cc1c[nH]c2ccccc12)NC(=O)[C@@H](N)Cc1c[nH]cn1)C(N)=O) |  |  |  |  | Unstimulated Basal GH Release from rat ([2]; peptide alone 1 μg i.v.): 67 ± 14 ng/mL; Unstimulated Basal GH Release from rat ([2]; peptide alone 3 μg i.v.): 141 ± 53 ng/mL; Unstimulated Basal GH Release from rat ([2]; peptide alone 10 μg i.v.): 197 ± 70 ng/mL; Unstimulated Basal GH Release from rat ([2]; peptide alone 30 μg i.v.): 509 ± 48 ng/mL
10 | His-Trp-DAla-DTrp-Phe-LysNH2 (HW[dA][dW]FK-NH2) |  |  |  |  | Unstimulated Basal GH Release from rat ([2]; peptide alone 1 μg i.v.): 204 ± 44 ng/mL; Unstimulated Basal GH Release from rat ([2]; peptide alone 3 μg i.v.): 127 ± 44 ng/mL; Unstimulated Basal GH Release from rat ([2]; peptide alone 10 μg i.v.): 83 ± 5 ng/mL
11 | Lys-DHis-DTrp-Phe-NH2 (K[dH][dW]F-NH2; N-terminus assumed; SMILES NCCCC[C@H](N)C(=O)N[C@H](Cc1c[nH]cn1)C(=O)N[C@H](Cc1c[nH]c2ccccc12)C(=O)N[C@@H](Cc1ccccc1)C(N)=O) |  |  |  | 121 ± 24 ng/mL | 
12 | Tyr-DAla-Phe-Aib-NH2 (Y[dA]F[Aib]-NH2; N-terminus assumed; SMILES C[C@@H](NC(=O)[C@@H](N)Cc1ccc(O)cc1)C(=O)N[C@@H](Cc1ccccc1)C(=O)NC(C)(C)C(N)=O) [Tyr-DAla-Phe-Alb-NH2] |  |  |  |  | Stimulated (S) GH release from rats [2]: 23 ± 5 ng/mL; Unstimulated GH release from rats [2]: 18 ± 1 ng/mL
13 | Tyr-DAla-Sar-NMePhe-NH2 |  |  |  |  | Stimulated (S) GH release from rats [2]: 24 ± 6 ng/mL; Unstimulated GH release from rats [2]: 18 ± 4 ng/mL
14 | [GABA][dW][dW][Orn]-NH2 |  |  |  | 90 ± 5 ng/mL | Unstimulated Basal GH release from rats [2, 9]: 82 ± 28 ng/mL; Unstimulated Basal GH release from rats [2, 10]: 113 ± 32 ng/mL
15 | inip-Trp-Trp-Phe-NH2 ([Inp]WWF-NH2; N-terminus assumed; SMILES NC(=O)[C@H](Cc1ccccc1)NC(=O)[C@H](Cc1c[nH]c2ccccc12)NC(=O)[C@H](Cc1c[nH]c2ccccc12)NC(=O)C1CCNCC1) |  |  |  | 69 ± 3 ng/mL | Unstimulated Basal GH release from rats [2, 10]: 81 ± 10 ng/mL
16 | αAbu-DTrp-DTrp-Orn-NH2 |  |  |  | 88 ± 18 ng/mL | Unstimulated Basal GH release from rats [2, 9]: 85 ± 25 ng/mL; Unstimulated Basal GH release from rats [2, 10]: 50 ± 6 ng/mL
17 | αγAbu-DTrp-DTrp-Lys-NH2 ([Dab][dW][dW]K-NH2; N-terminus assumed; SMILES NCCCC[C@H](NC(=O)[C@@H](Cc1c[nH]c2ccccc12)NC(=O)[C@@H](Cc1c[nH]c2ccccc12)NC(=O)[C@@H](N)CCN)C(N)=O) |  |  |  | 62 ± 15 ng/mL | Unstimulated Basal GH release from rats [2, 9]: 57 ± 7 ng/mL; Unstimulated Basal GH release from rats ([2]; peptide antagonist alone 3 μg i.v.): 84 ± 18 ng/mL
18 | αγAbu-DTrp-DTrp-Orn-NH2 |  |  |  | 126 ± 27 ng/mL | Unstimulated Basal GH release from rats [2, 9]: 118 ± 16 ng/mL; Unstimulated Basal GH release from rats [2, 10]: 79 ± 31 ng/mL
19 | αγAbu-DTrp-DTrp-Ser-NH2 ([Dab][dW][dW]S-NH2; N-terminus assumed; SMILES NCC[C@H](N)C(=O)N[C@H](Cc1c[nH]c2ccccc12)C(=O)N[C@H](Cc1c[nH]c2ccccc12)C(=O)N[C@@H](CO)C(N)=O) |  |  |  | 62 ± 15 ng/mL | Unstimulated Basal GH release from rats [2, 9]: 80 ± 35 ng/mL; Unstimulated Basal GH release from rats [2, 10]: 67 ± 8 ng/mL
20 | βAla-Trp-DAla-DTrp-Phe-NH2 ([βAla]W[dA][dW]F-NH2; N-terminus assumed; SMILES C[C@@H](NC(=O)[C@H](Cc1c[nH]c2ccccc12)NC(=O)CCN)C(=O)N[C@H](Cc1c[nH]c2ccccc12)C(=O)N[C@@H](Cc1ccccc1)C(N)=O) |  |  |  |  | Unstimulated Basal GH Release from rat ([2]; peptide alone 30 μg i.v.): 341 ± 46 ng/mL; Unstimulated Basal GH Release from rat ([2]; peptide alone 100 μg i.v.): 636 ± 171 ng/mL
